Measurements published in PMC3179463.

Legend:
[1] = target: MALT1 tandem Ig-like domains (IgL1–IgL2) (human); assay: AUC; sedimentation equilibrium, Beckman Optima XL-A, An-60 Ti rotor; 20 mM Tris-HCl pH 8, 200 mM NaCl, 1 mM TCEP; 12,000 and 15,000 rpm, 4°C; 0.25, 0.5 and 1.0 mg/ml; global self-association fit
[2] = target: MALT1 tandem Ig-like domains (IgL1–IgL2) (human); assay: SEC; Superdex-200 16/60, 10 mg/mL protein, Tris buffer pH 8.0 (50 mM in the methods, 20 mM in the legend), 500 mM NaCl, 1 mM TCEP, 4°C; mass estimated from standard proteins

## MALT1 tandem Ig-like domains (IgL1–IgL2) (domain or fragment)
[1]
  stoichiometry N: 3.5
[2]
  stoichiometry N: 4
